Source: a protein production outcome set (Wang et al. 2014)

Assay: label from the status in PepcDB records
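Note: failed if final PepcDB status was selected cloned or expressed and not failed if soluble or beyond.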

| Sequence | protein production |
| --- | --- |
| MERRGELHRVRVPVSAELEIAEIADRVVKAGGPALLFERVVGKDFPVAIGLFGTRARTAFALGVEDLDELARKVEALLALEPGKGGLSALLGLLPKLPLLRGFFPRRVRRAPVQEVVWRGEEVDLRRLPVLKCWPLDGGPFLTLPLVITKDPETGELNLGMYRMQVLDPRSTAMHWQWHKVGRRHLEKAKRLGRRLEVAVALGGDPVLTYAATAPLPPLPGVSEFHLAGFLRGAPIELARGVTVDLPVPAEAEFVLEGYIDPEEPLVEEGPFGDHTGFYTPVDLYPRFHVTAVTHRKGAIYPATLVGVPPMEDAYLIEATERLFLPALRLVLPEVVDYHMPPEGVAHNWVNVSLRKAYPGQAYKVAYGMLGLGQMMFAKVIVAVDADVPVKPGFAALLEALKHALPGRDTLLLRGPVDVLDHSSRAFAFGGKLVIDGTRKLPEEGGEAPFVPKAHPGLPEDPEVLDQRQWPGLWGAVLAKRRPHQAWEVAERLLRAPQSAGIRLLLLADEDTALSPEELLWYVLNNVDPERDARVMPGVEGPVLVLDGTRKLPEEGFPRVWPERIRMDPKVKALVEARWAEYGLGWTTVGE | failed |
| MFKPQGLYDYICQQWQEEILPSLCDYIKIPNKSPHFDAKWEEHGYMEQAVNHIANWCKSHAPKGMTLEIVRLKNRTPLLFMEIPGQIDDTVLLYGHLDKQPEMSGWSDDLHPWKPVLKNGLLYGRGGADDGYSAYASLTAIRALEQQGLPYPRCILIIEACEESGSYDLPFYIELLKERIGKPSLVICLDSGAGNYEQLWMTTSLRGNLVGKLTVELINEGVHSGSASGIVADSFRVARQLISRIEDENTGEIKLPQLYCDIPDERIKQAKQCAEILGEQVYSEFPWIDSAKPVIQDKQQLILNRTWRPALTVTGADGFPAIADAGNVMRPVTSLKLSMRLPPLVDPEAASVAMEKALTQNPPYNAKVDFKIQNGGSKGWNAPLLSDWLAKAASEASMTYYDKPAAYMGEGGTIPFMSMLGEQFPKAQFMITGVLGPHSNAHGPNEFLHLDMVKKLTSCVSYVLYSFSQKK | not failed |
| MSNYPLHQACMENEFFKVQELLHSKPSLLLQKDQDGRIPLHWSVSFQAHEITSFLLSKMENVNLDDYPDDSGWTPFHIACSVGNLEVVKSLYDRPLKPDLNKITNQGVTCLHLAVGKKWFEVSQFLIENGASVRIKDKFNQIPLHRAASVGSLKLIELLCGLGKSAVNWQDKQGWTPLFHALAEGHGDAAVLLVEKYGAEYDLVDNKGAKAEDVALNEQVKKFFLNNV | not failed |
| MGFYGGGSMASGRPESTGIDSLGIGKILAVYIKDNENLAIDEDKLQLTAELIRVFSASPGRDIVSQVNEDGGGSFSLSLDLQQFKKISDIENFFINLEDNPKGVIPCMNAAVHKVLFDQWETNEFENVMKINVRLHNYPESSISLKNLRAAYIGKLVTVHGTVVKVSTVKPLVTQMAFDCGKCKTGITREFTDGKFSPPLKCDSHGCKSKTFTPIRSSAQTIDFQKIRVQELQKPEDHEEGRVPRTVECELMEDLVDICIPGDVVTVTGIIGVINNYMDIGGGKSKTKNQGFYYLFIEAVSVKNTKRQSAFENSEDSSSSAQTADVGDLYSFSQRDLEFIVKFKEEYGSDTFRRILHSVCPSIYGHEIVKAGITLSLFGGVRKHSMDRNKVPVRGDIHVIIVGDPGLGKSQLLQAAAAISPRGIYVCGNATTRAGLTVAVVKDSMTNDYAFEAGAMVLADGGLCCIDEFDKMTTEHQALLEAMEQQCVSVAKAGLVASLSARTSVIAAANPVGGHYNRAKTVNENLKMSAALLSRFDLVFILLDKPDELLDKQVSEHIMSHHRMLGMQTCMQKGILYFQDCGWTLRKMTTFLRFLANCLGNIFPMHGILMSKDAGEIIQKFYLKLRDHNTSADSTPITARQLESLVRLAQARARVDLREEITVQDAMDVVEIMKESLYDKLIDEHGVVDFGRSGGMSQQKEAKRFLSALDKQSELQQKDCFSVSEMYSLADRIGLRVPDIDTFLENLNIAGYLLKKGPKTYQVLSSSYSRSQSSRSR | failed |
| MNVVVTGGRGSSGRWIVDRLVGPHDVTVLDRRLPDDEGHPAVEYQALDLTDAGGVFDTLTAIDPDAVVHWAAIPVAGNHPGVDLFQNNTLAAHNVLSAAGRVGADVVQGSSDGAYGFFFAEETPVPDELPITEKHARRPEDDYGLSKVVTEEIGKTIARRDGISVASIRPSWIQIPGEYPCRSEDYVDDLAAGAGNYWSYVDVRDVADLVEAALTADVAGHETFNCVGPDNALGRPLVELMRDHYGRVPDDCTVEGDAAAYSTAKATERLGWEPTRSWREAADVDVDVPTV | failed |
| MHIPENLYVVGTMNIADRSLALVDLALRRRFAFVGLEPRLGQVWRDWVVKECAVDPGLVADIERRIAELNDQIAADARLGKQFRIGHSYVTPAHRLEAGDTKKWFLQVVETEIGPLLDEYWFDAPDEAQKAIARLTQGLEHHHHHH | failed |
| MSDFGILSLLPPLVAIVLAIWTKRVVFALFSGVWIGGVMAANWNPITGTIKTFEWIIQNVTNSWNATILVFDFLIGAGVGLIYKSGGVHAVANAITKRIKTSRDASLLGWLLGVLIFFDDYTNTIIVGNTMRPITDKMRVSREMLAYIDDSTAAPVAGIAIVSTWIGYELGLIKEAFEKLHITMGEYYAWLHSVPYRFYSIFAIILVFIVAYTHRHYGAMLKAEMRARTTGKVVRDDAKPLMATESDLGLPLTEKGSVHFFIWPVLSLIIVTLLGLYYTGKAACEGPCGAMDILSNADSATSLLWGSFAMVAVALTLVLATKTMTVEETESAIIQGMKQMMMATVILVLAWSIKSATEAVGTAEYVVGLAQRANVPGGIIPLIIFLTAMFISFTTGTSWGTFGILMPIAIPLAYKLAPNDPQVLFASIGAVFAGGIFGDHCSPISDTTIMSSMFSGSDHIDHVTTQIPYAVTAASVGIVLYILFALGIKSPVILLPVGLVLLIAAWYFLSEWYGKKYGVPHGRVPIYPTEISE | failed |
| MGRSQATAESYRDSLTIFKNYLVGELGKSISTFQFSDCTKECIYNFREYLLANGSQPSTVNVRVAAIRAYLNYASDMDISVQSVALAILEHHHHHH | failed |
| MKKWFPALLFSLCVSGESSAWNNIVFYSLGDVNSYQGGNVVITQRPQFITSWRPGIATVTWNQCNGPEFADGFWAYYREYIAWVVFPKKVMTQNGYPLFIEVHNKGSWSEENTGDNDSYFFLKGYKWDERAFDAGNLCQKPGEITRLTEKFDDIIFKVALPADLPLGDYSVKIPYTSGMQRHFASYLGARFKIPYNVAKTLPRENEMLFLFKNIGGCRPSAQSLEIKHGDLSINSANNHYAAQTLSVSCDVPANIRFMLLRNTTPTYSHGKKFSVGLGHGWDSIVSVNGVDTGETTMRWYKAGTQNLTIGSRLYGESSKIQPGVLSGSATLLMILP | not failed |
| MYQTQTNKEKFVLFLKLFIPVLIYQFANFSATFIDSVMTGQYSQLHLAGVSTASNLWTPFFALLVGMISALVPVVGQHLGRGNKEQIRTEFHQFLYLGLILSLILFLIMQFIAQPVLGSLGLEDEVLAVGRGYLNYMLIGIMPLVLFSICRSFFDALGLTRLSMYLMLLILPFNSFFNYMLIYGKFGMPRLGGAGAGLGTSLTYWAIFIVIIIVMSLHPQIKTYHIWTLERIKAPLIIEDIRLGLPIGLQIFAEVAIFAVVGLFMAKFSSIIIAAHQAAMNFSSLMYAFPLSISTALAITISFEVGAERFQDANTYSRIGRLTAVGITSGTLLFLFLFRENVAAMYNSDPHFVAITAQFLTYSLFFQFADAYAAPVQGILRGYKDTTKPFMIGAGSYWLCALPLAVILEKNSQLGPFAYWIGLITGIFVCGLFLNQRLQKIKKLYY | failed |
| QAQITGRPEWIWLALGTALMGLGTLYFLVKGMGVSDPDAKKFYAITTLVPAIAFTMYLSMLLGYGLTMVPFGGEQNPIYWARYADWLFTTPLLLLDLALLVDADQGTILALVGADGIMIGTGLVGALTKVYSYRFVWWAISTAAMLYILYVLFFGFTSKAESMRPEVASTFKVLRNVTVVLWSAYPVVWLIGSEGAGIVPLNIETLLFMVLDVSAKVGFGLILLRSRAIFGEAEAPEPSAGDGAAATSD | failed |
| MIAHPVVGIVGIAGAYGRWLAQFLRTRMGLEVIGVDPALPDGLDDATLVARADVLIFSAPIRHTAALIERYAALAGARAAEQLWLDVTSIKQAPVAAMLASQAEVVGLHPMTAPPKSPTLKGRVMVVCRARVQRWSGWVDALCSALQAECVYATPEHHDRVMALVQAMVHATHLAQAGTLRDYAPLLGELRTLMPYRSASFELDTAVIARILSLNPSIYEDIQFGNPYVAEMLDRLLAQLQELRGLVVQGDDAARLRFRQAFLDANAQALQGDSLAAGNYTYERVGYLLADLTEPLTLSVYLPEDQPGSLRVLLHVFEQHGVNLSSIHSSRTPGGELHFRMGFEPESDRAALGRAAAQIDADRIGRVLERVDRER | failed |
| MGFLEAYKSFWRNYVNFSGRAPRSAYWYVVLWNVIIFVILYALAFIFGISAIMEAAMGGTGMAGGGGAIVLVIILWLYLLAALLPTISLMVRRLHDSGKSGFFVLLSLIPFAGGIIMLIFMCLESDGPNQYGDGDIDSKFDF | failed |
| MSLQPKLLLVLKGDSNAYWRQVYLGAQKAADEAGVTLLHRSTKDDGDIAGQIQILSYHLSQAPPDALILAPNSAEDLTPSVAQYRARNIPVLVVDSDLAGDAHQGLVATDNYAAGQLAARALLATLDLSKERNIALLRLRAGNASTDQREQGFLDVLRKHDKIRIIAAPYAGDDRGAARSEMLRLLKETPTIDGLFTPNESTTIGALVAIRQSGMSKQFGFIGFDQTEELEAAMYAGEISNLVVQNPEYMGYLAVQRALDLVRGKPIPAFTDTGVRLLQEGHHHHHH | not failed |
| MIHDVDPTNDKYPAALRILHWVRALLTLGLIAAGWMMTVLADTVTEKFTLLYPWHKSFGVLVFLIVLAQLAIRAMSRLPGPAPLPAQERLLSQAVHVAMYALLLLVPLMGYAMSSSFTDSDGVFFFGIHLPELLPKDDDRFRLFQFLHKTLAYSLLALVILHVAGALKHRYFDKDRRTDVLPRII | failed |
| MSLDVYVNFPADGHVREIAKTVLDGFDLHWYPDYYDAEAQVIKDRYVLGKRTKMIQAISAGVDHIDVNGIPENVVLCSNAGAYSISVAEHAFALLLAHAKNILENNELMKAGIFRQSPTTLLYGKALGILGYGGIGRRVAHLAKAFGMRVIAYTRSSVDQNVDVISESPADLFRQSDFVLIAIPLTDKTRGMVNSRLLANARKNLTIVNVARADVVSKPDMIGFLKERSDVWYLSDVWWNEPEITETNLRNAILSPHVAGGMSGEIMDIAIQLAFENVRNFFEGEGHHHHHH | not failed |
| MSVKVSEYMTKKVVTVSKDNTVKDVIKLLKETGHNSFPVVENGKLIGIVSVHDIVGKDDNEKVENVMTKRKDMVVTTPDANIMDVGRIMFRTGFSKLPVVDEENNLVGIISNMDVIRSQIEKTTPKKLENIIKTYKSLGYNLRVEKEEVDVNKLRPTQNKIHADELVGRMYELKKGLAEPIIAIKTKRGDYYILVDGHHRAVAAYKMGVPKLDAYVIYLDTDKKLGIEKTAEIMNLKSLEDVKIVDSDDENSVKVIKYNKNGVLG | failed |
| TIDIDLQKEVEALLDKQIKKLRSQGAKDMDNAMMVVQNPKNGDILALAGKQINKSGKMTDYDIGTFTSQFAVGSSVKGGTLLAGYQNKAIKVGETMVDEPLHFQGGLTKRSYFNKNGHVSINDKQALMHSSNVYMFKTALKLAGDPYYSGMALPSDISSPAQKLRRGLNQVGLGVKTGIDLPNETRGQIEPLTNNPGNYLDLSIGQYDTYTPLQLSQYVSTIANDGYRIQPHIGLTIHESTNKDEVGPLKKKINGTVLNKVNNTEKEIKQIQEGFKMAFNDKDGTGYVSFKDTVVPTAGKTGTAEVFQNGEPRVNSTYIGYAPIDDPKLAFSIVYTNQPVPPPWLTGGDLGRDVINYYFKQLGKDDK | failed |
